These are literature values, as cited in PMC3507713.

What is called pKd is the negative decadic logarithm of the Kd, by convention in mol/L.

This data set deals with TRAIL (Homo sapiens) (UniProt P50591).

pKd: −log10 of the molar value.

Chain of UniProt P50591 (P50591 whole entry): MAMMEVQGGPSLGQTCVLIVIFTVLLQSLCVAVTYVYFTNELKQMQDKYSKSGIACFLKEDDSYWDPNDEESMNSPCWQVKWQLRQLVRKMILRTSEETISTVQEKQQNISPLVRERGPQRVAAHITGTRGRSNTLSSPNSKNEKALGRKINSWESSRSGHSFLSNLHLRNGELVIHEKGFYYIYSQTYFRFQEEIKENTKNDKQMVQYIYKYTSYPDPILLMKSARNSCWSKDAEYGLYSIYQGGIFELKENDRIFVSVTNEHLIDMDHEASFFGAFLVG

Consider Osteoprotegerin (from UniProt O00300), for which the pKd was 6.40.
